Reference: publication PMC8160579 (The Journal of Cell Biology, 2021)
Where no end group is shown, it is not given here.

B2: biotinylated SAMM50 LIR peptide (residues 18–41) (peptide)
peptide: DFGGLGEEAEFVEVEPEAKQEILE
modifications: also: biotinylated, position not given here

Key:
GST-GABARAP Y49A = GST-GABARAP Y49A (human, UniProt O95166 1-117, Y49A); experiment: pull-down
GABARAP, purified = GABARAP, purified (human, UniProt O95166 1-117); experiment: BLI
GABARAPL1, purified = GABARAPL1, purified (human, UniProt Q9H0R8 1-117); experiment: BLI
GABARAPL1, purified, sequence (Q9H0R8 whole entry): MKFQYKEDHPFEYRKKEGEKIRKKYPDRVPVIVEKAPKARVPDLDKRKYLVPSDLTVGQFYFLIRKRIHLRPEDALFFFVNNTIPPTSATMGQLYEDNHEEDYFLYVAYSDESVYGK

LC3A, purified = LC3A, purified (human, UniProt Q9H492 1-121); experiment: BLI
LC3C, purified = LC3C, purified (human, UniProt Q9BXW4 1-126); experiment: BLI
LC3C, purified, sequence (Q9BXW4 1-126): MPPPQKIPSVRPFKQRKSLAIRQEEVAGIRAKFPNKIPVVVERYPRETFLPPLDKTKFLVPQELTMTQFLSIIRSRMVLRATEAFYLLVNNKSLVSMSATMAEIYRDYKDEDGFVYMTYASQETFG

[1] = target: B2; experiment: BLI

GABARAP, purified, sequence (O95166 whole entry): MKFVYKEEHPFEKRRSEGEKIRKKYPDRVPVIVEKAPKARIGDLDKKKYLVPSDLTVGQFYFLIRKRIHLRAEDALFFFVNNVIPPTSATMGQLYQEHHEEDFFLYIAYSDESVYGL

B1: Myc-SAMM50 WT, in vitro translated (natural protein)
chain: MGTVHARSLEPLPSSGPDFGGLGEEAEFVEVEPEAKQEILENKDVVVQHVHFDGLGRTKDDIIICEIGDVFKAKNLIEVMRKSHEAREKLLRLGIFRQVDVLIDTCQGDDALPNGLDVTFEVTELRRLTGSYNTMVGNNEGSMVLGLKLPNLLGRAEKVTFQFSYGTKETSYGLSFFKPRPGNFERNFSVNLYKVTGQFPWSSLRETDRGMSAEYSFPIWKTSHTVKWEGVWRELGCLSRTASFAVRKESGHSLKSSLSHAMVIDSRNSSILPRRGALLKVNQELAGYTGGDVSFIKEDFELQLNKQLIFDSVFSASFWGGMLVPIGDKPSSIADRFYLGGPTSIRGFSMHSIGPQSEGDYLGGEAYWAGGLHLYTPLPFRPGQGGFGELFRTHFFLNAGNLCNLNYGEGPKAHIRKLAECIRWSYGAGIVLRLGNIARLELNYCVPMGVQTGDRICDGVQFGAGIRFL
With B1 the “reduction in binding relative to WT GABARAP” value (GST-GABARAP Y49A) was greater than 60%.

Binder B2 has a Kd (GABARAP, purified) of 23.9 µM, a Kd (GABARAPL1, purified) of 10 µM and a Kd (LC3A, purified) of 27.6 µM. For the same binder, the Kd (LC3C, purified) was 57.2 µM.

B3: GABARAP Q59E (natural protein)
chain: MKFVYKEEHPFEKRRSEGEKIRKKYPDRVPVIVEKAPKARIGDLDKKKYLVPSDLTVGEFYFLIRKRIHLRAEDALFFFVNNVIPPTSATMGQLYQEHHEEDFFLYIAYSDESVYGL
In the case of B3, the “fold reduction of binding relative to WT GABARAP” value [1] is reported as greater than 3.5 fold.
